These results are taken from US20150045310A1.

Where no end group is shown, it is not given here. eCPX = enhanced circularly permuted OmpX display scaffold; linker = not defined here

Test [1] addresses A1 (biotinylated pro-survival Bcl-2 family protein) (UniProt Q16548). As to the kind of experiment: flow cytometry of E. coli displaying the peptide on eCPX, biotinylated target + streptavidin-PE; apparent Kd.
For test [2] the target is unchanged. Briefly: apparent Kd, bacterial surface display and flow cytometry. For orientation: Flow cytometry measures light scatter and fluorescence of single cells or particles in a stream.

As for WIAQELRRIGDEFN-{linker-eCPX} (peptide, not shown: large carriers; small tags and cut ends, reading uncertain) [wild-type Bim BH3 14-mer peptide (residues 147-160) displayed on eCPX], the Kd in test [1] amounted to 26.9 nM.
Consider WVAQWLRRWGDEFN (peptide, not shown: large carriers; small tags and cut ends, also: displayed as fusion to eCPX scaffold (letters not given here)) [Bim BH3 14-mer variant X2-3 displayed on eCPX], for which the Kd in test [1] was 30.2 nM.
Still for that read-out and setting: the value for WIAQQLRRIGDEFN (peptide, not shown: large carriers; small tags and cut ends, not fully specified) [Bim BH3 14-mer E151Q (pseudo-wild-type) displayed on eCPX] was 29.6 nM; that for WLAQLLRRYGDEFN (peptide, not shown: large carriers; small tags and cut ends, also: displayed as fusion to eCPX scaffold (letters not given here)) [Bim BH3 14-mer variant X2-8 displayed on eCPX] was 40.5 nM.

B1: Bim BH3 14-mer variant M2-2 displayed on eCPX (peptide, not shown: large carriers; small tags and cut ends)
peptide: WVAQLLRRIGDEVN-{linker-eCPX}
modifications: reading uncertain; also: printed as Trp-Val-Ala-Gln-Leu-Leu-Arg-Arg-Ile-Gly-Asp-Glu-Val-Asn
For B1, the fold affinity improvement against wild-type Bim 14-mer in test [2] worked out at 3 fold. The Kd in test [1] was determined as 9.99 nM.

B2: Bim BH3 14-mer variant M2-4 displayed on eCPX (peptide, not shown: large carriers; small tags and cut ends)
peptide: WLAQLLRRIGDEIN-{linker-eCPX}
modifications: reading uncertain; also: printed as Trp-Leu-Ala-Gln-Leu-Leu-Arg-Arg-Ile-Gly-Asp-Glu-Ile-Asn
On to B2, for which the fold affinity improvement against wild-type Bim 14-mer in test [2] came out at 6 fold. The Kd in test [1] amounted to 4.18 nM.
